Experiments:
[1] = biological target: H4Kac5-containing nucleosomes (H4 K5/8/12/16/20ac) (UniProt P62805)
[2] = system: H3Kac5-containing nucleosomes (H3 K9/14/18/23/27ac)
wt nucleosomes = wt nucleosomes (UniProt P62805)
nucleosomes with H4K12ac = nucleosomes with H4K12ac (UniProt P62805)

recombinant full-length human p300
H3 acetylation (α-H3K18ac pulldown) compared to wt [1]: 13-fold compared to wt | H4 acetylation (α-H4K5ac pulldown) compared to wt [2]: 6-fold increase compared to wt | pulldown with α-H3K18ac antibody (% input), with AcCoA (wt nucleosomes): an increase in pulldown from 0.3% to about 4% input | pulldown with α-H3K18ac antibody (% input), without AcCoA (wt nucleosomes): an increase in pulldown from 0.3% to about 4% input | pulldown with α-H4K5ac antibody (% input), with AcCoA (wt nucleosomes): 0.5 to 0.9% input | pulldown with α-H4K5ac antibody (% input), without AcCoA (wt nucleosomes): 0.5 to 0.9% input | H3 acetylation (α-H3K18ac pulldown) (nucleosomes with H4K12ac): This effect was dependent on the exact position of the mark within the tail and was most pronounced for H4K12ac | pulldown efficiency with α-H4K5ac antibody (% input) (nucleosomes with H4K12ac): 4.4% input

— patent US20190093159
